In the experiment the target is SARS-CoV-2 spike receptor binding domain (RBD), Avi-tagged and biotinylated (SARS-CoV-2, UniProt P0DTC2 319-541, biotin (Avi tag, by BirA)). Description: ELISA. (ELISA stands for enzyme-linked immunosorbent assay.)

B1: REGN10987 Fab-TD (Fab, V domains shown)
VH: QVQLVESGGGVVQPGRSLRLSCAASGFTFSNYAMYWVRQAPGKGLEWVAVISYDGSNKYYADSVKGRFTISRDNSKNTLYLQMNSLRTEDTAVYYCASGSDYGDYLLVYWGQGTLVTVSS
VL: QSALTQPASVSGSPGQSITISCTGTSSDVGGYNYVSWYQQHPGKAPKLMIYDVSKRPSGVSNRFSGSKSGNTASLTISGLQSEDEADYYCNSLTSISTWVFGGGTKLTVL
In general, IC50 refers to the concentration that gives 50% inhibition. Read a high IC50 as weaker potency in that assay. Take B1: the IC50 stood at 20 pM.

B2: REGN10987 mIg-TD (antibody, V domains shown)
VH: B1 VH
VL: B1 VL
B2 gave an IC50 of 400 pM. Compared with the last molecule, the IC50 is about 20-fold higher.

B3: REGN10987 Ig-TD (antibody, V domains shown)
VH: B1 VH
VL: B1 VL
On to B3, for which the IC50 is 120 pM.

B4: REGN10933 Ig-TD (antibody, V domains shown)
VH: QVQLVESGGGLVKPGGSLRLSCAASGFTFSDYYMSWIRQAPGKGLEWVSYITYSGSTIYYADSVKGRFTISRDNAKSSLYLQMNSLRAEDTAVYYCARDRGTTMVPFDYWGQGTLVTVSS
VL: DIQMTQSPSSLSASVGDRVTITCQASQDITNYLNWYQQKPGKAPKLLIYAASNLETGVPSRFSGSGSGTDFTFTISGLQPEDIATYYCQQYDNLPLTFGGGTKVEIK
As to B4, the IC50 was found to be 45 pM.

B5: REGN10933 IgG1 (antibody, V domains shown)
VH: B4 VH
VL: B4 VL
B5 showed an IC50 of 1450 pM. Against the preceding molecule, the IC50 is about 32-fold higher.

B6: REGN10933 mIg-TD (antibody, V domains shown)
VH: B4 VH
VL: B4 VL
Take B6: the half-maximal inhibitory concentration (IC50) is 180 pM. This IC50 is about 8.1-fold lower than that of the molecule before.

B7: REGN10933 Fab-TD (Fab, V domains shown)
VH: B4 VH
VL: B4 VL
In turn, B7 had an IC50 of 12 pM. Compared with the last molecule, the IC50 is about 15-fold lower.

B8: CB6/Junshi Fab-TD (Fab, V domains shown)
VH: EVQLVESGGGLVQPGGSLRLSCAASGFTVSSNYMSWVRQAPGKGLEWVSVIYSGGSTFYADSVKGRFTISRDNSMNTLFLQMNSLRAEDTAVYYCARVLPMYGDYLDYWGQGTLVTVSS
VL: not shown
Turning to B8, the concentration for half-maximal inhibition (IC50) came out at 30 pM. Compared with the last molecule, the IC50 is about 2.5-fold higher.

B9: CB6/Junshi mIg-TD (antibody, V domains shown)
VH: B8 VH
VL: not shown
In turn, B9 displayed a half-inhibitory concentration (IC50) of 290 pM.

B10: CB6/Junshi Ig-TD (antibody, V domains shown)
VH: B8 VH
VL: not shown
B10 registered an IC50 of 100 pM.

For the origin of these results see article PMC8131632 (2021).
